From patent publication US20230235040A1 (ALMIRALL S A, published 2023) come the findings set out here.

For test [1], the target named is T1, hu-IL-36α-Avi (in-vivo biotinylated) (human, site-specifically biotinylated in vivo on the C-terminal AviTag (BirA)).
T1 construct: also called biotinylated human IL-36α-Avi
T1 chain: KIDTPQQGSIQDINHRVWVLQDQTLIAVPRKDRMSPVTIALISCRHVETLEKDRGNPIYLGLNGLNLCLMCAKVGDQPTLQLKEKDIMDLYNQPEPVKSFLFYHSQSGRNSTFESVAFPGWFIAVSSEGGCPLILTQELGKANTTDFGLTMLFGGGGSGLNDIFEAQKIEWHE
Put plainly: SPR (Biacore 8K), in-vivo biotinylated IL-36-Avi captured on CAP chip, bispecific IgG injected, 25°C. As for the experimental part:
(§1) Surface plasmon resonance (SPR) analysis was used to determine the binding affinity for human and cynomolgus monkey IL-36 (“hu-IL-36” and “cy-IL-36,” respectively) using a BIACORE™ 8K instrument as described in Example 2. […] Briefly, a 1:4 dilution of Biotin CAPture Reagent (GE Healthcare) into HBS-EP buffer (0.01 M HEPES pH 7.4, 0.15 M NaCl, 3 mM EDTA, 0.005% Surfactant P20) was applied to a CAP sensor chip at 2 μL/min flow rate. For kinetics measurements, 1 nM biotinylated human and cyno IL-36α-Avi, IL-36γ-Avi; 0.8 nM biotinylated human and cyno IL-36β-Avi were captured at 10 μL/min to achieve 15-25 response units in the second flow cell (FC2). FC1 was kept as a reference. […] The sensorgram was recorded and subject to reference and buffer subtraction before data analysis with the BIACORE® 8K Evaluation Software (version 1.1.1.7442). […] Association rates (kₒₙ) and dissociation rates (koff) were calculated using a simple one-to-one Langmuir binding model. The equilibrium dissociation constant (KD) was calculated as the ratio of koff/kₒₙ.
In general terms: Surface plasmon resonance follows binding to a sensor surface in real time, without labels.

The target in test [2] is T2, cy-IL-36α-Avi (in-vivo biotinylated) (cynomolgus monkey, limits assumed, site-specifically biotinylated in vivo on the C-terminal AviTag (BirA)).
T2 construct: also called biotinylated cyno IL-36α-Avi
T2 chain: T1 chain with I2S, D3E, T4M, Q7P, G8V, T24I, M34V, A40S, V74A
Described as above. As for the experimental part: as §1

Test [3] has as its target T3, hu-IL-36β-Avi (in-vivo biotinylated) (human, site-specifically biotinylated in vivo on the C-terminal AviTag (BirA)).
T3 construct: also called biotinylated human IL-36β-Avi
T3 chain: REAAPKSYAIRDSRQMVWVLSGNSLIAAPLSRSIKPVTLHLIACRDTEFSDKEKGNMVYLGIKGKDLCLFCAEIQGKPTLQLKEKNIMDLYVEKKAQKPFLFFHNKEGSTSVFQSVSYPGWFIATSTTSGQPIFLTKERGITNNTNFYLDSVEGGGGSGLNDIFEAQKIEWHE
Described as above. As for the experimental part:
as §1

In test [4] the target is T4, cy-IL-36β-Avi (in-vivo biotinylated) (cynomolgus monkey, site-specifically biotinylated in vivo on the C-terminal AviTag (BirA)).
T4 construct: also called cy-IL-36J-Avi [sic]; biotinylated cyno IL-36β-Avi
T4 chain: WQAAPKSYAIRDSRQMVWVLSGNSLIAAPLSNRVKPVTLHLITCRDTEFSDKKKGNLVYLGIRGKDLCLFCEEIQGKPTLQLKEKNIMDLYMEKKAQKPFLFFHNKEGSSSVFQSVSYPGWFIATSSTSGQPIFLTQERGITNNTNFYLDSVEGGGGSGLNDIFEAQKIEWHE
The description is as above. As for the experimental part:
as §1

In test [5] the target is T5, hu-IL-36γ-Avi (in-vivo biotinylated) (human, site-specifically biotinylated in vivo on the C-terminal AviTag (BirA)).
T5 construct: also called biotinylated human IL-36γ-Avi
T5 chain: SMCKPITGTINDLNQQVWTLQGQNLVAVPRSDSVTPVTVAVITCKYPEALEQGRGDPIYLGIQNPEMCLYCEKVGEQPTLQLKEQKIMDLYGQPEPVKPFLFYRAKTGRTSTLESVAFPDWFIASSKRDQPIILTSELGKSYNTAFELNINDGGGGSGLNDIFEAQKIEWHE
The test is described as above. As for the experimental part:
as §1

In test [6] the target is T6, cy-IL-36γ-Avi (in-vivo biotinylated) (cynomolgus monkey, limits assumed, site-specifically biotinylated in vivo on the C-terminal AviTag (BirA)).
T6 construct: also called biotinylated cyno IL-36γ-Avi
T6 chain: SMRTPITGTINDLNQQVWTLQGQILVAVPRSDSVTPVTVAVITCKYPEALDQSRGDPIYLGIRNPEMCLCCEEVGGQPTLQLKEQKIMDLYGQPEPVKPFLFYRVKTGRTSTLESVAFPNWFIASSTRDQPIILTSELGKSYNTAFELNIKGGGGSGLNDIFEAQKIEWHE
The test is described as above. As for the experimental part: as §1

Test [7] concerns the target T2, cy-IL-36α-Avi (in-vivo biotinylated). Put plainly: SPR (Biacore 8K), in-vivo biotinylated IL-36-Avi captured on CAP chip, bispecific IgG injected, 37°C. As for the experimental part: as §1
Test [8] addresses T5, hu-IL-36γ-Avi (in-vivo biotinylated). The test is described as above. As for the experimental part: as §1

Residue numbers refer to the chain shown, from its start. Numbers in names are those of the source.

B1: mAb2.10/mAb6_2.7 multispecific common light chain antibody (IgG, knobs-into-holes, N297G) (bispecific antibody)
heavy 1: not shown
heavy 2: not shown
light: ESVLTQPPSVSGAPGQRVTISCTGSSSNIGAHYDVHWYQQLPGTAPKLLIYGNDNRPSGVPDRFSGSKSGTSASLAITGLQAEDEADYYCQSYDYSLSGYVFGGGTKLTVLGQPKAAPSVTLFPPSSEELQANKATLVCLISDFYPGAVTVAWKADSSPVKAGVETTTPSKQSNNKYAASSYLSLTPEQWKSHKSYSCQVTHEGSTVEKTVAPTECS
notes: tags removed; also called mAb2.10/mAb6_2.7 IgG; anti-IL-36 multispecific antibody
On to B1, for which the Kd – broadly, the equilibrium constant for the complex coming apart – in test [1] came out at 1.17 nM; in test [2], 1.93 nM; in test [3], 0.63 nM; in test [4] it was 0.97 nM; in test [5] it was 0.72 nM; in test [6], 0.79 nM. For the same molecule, the Kd turned out to be 2.57 nM in test [7] and 1.63 nM in test [8]. Further, the koff (as a rule, a measure of how fast the partners let go of each other) was determined as 0.000157 s⁻¹ in test [1]; 0.000335 s⁻¹ in test [2]; 4.77e-05 s⁻¹ in test [3]; 6.32e-05 s⁻¹ in test [4]; 0.000122 s⁻¹ in test [5]; 0.00013 s⁻¹ in test [6]. For the same molecule, the off-rate constant (koff) came out at 0.000625 s⁻¹ in test [7] and 0.000341 s⁻¹ in test [8]. For the same molecule, the kon (usually a measure of how fast the partners come together) amounted to 134000 M⁻¹ s⁻¹ in test [1]; 174000 M⁻¹ s⁻¹ in test [2]; 76000 M⁻¹ s⁻¹ in test [3]; 65200 M⁻¹ s⁻¹ in test [4]; 171000 M⁻¹ s⁻¹ in test [5]; 165000 M⁻¹ s⁻¹ in test [6]. Further, the values for the kon in test [7] and in test [8] were 243000 M⁻¹ s⁻¹ and 210000 M⁻¹ s⁻¹, respectively.
